Consider 12 molecules from US20250361295A1 (ANTENGENE BIOLOGICS, published 2025).

Changes are numbered by the printed parent chain.

B1: ch43-D12-F3-G11 (antibody, V domains shown)
VH: EVQVVESGPGLVAPSQSLSITCTVSGFSLTSYGVSWVRQPPGKGLEWLGVIWADGSTNYHSALLSRLSISKDNSKSQVFLKLNSLQTDDTATYYCAKGHWDGFAYWGQGTLVAVSA
VL: DIVLTQSPAIMSTSPGEKVTLTCSASSSITSSYLYWYQQKPGSSPKLWIYSTSNLASGVPARFSGSGSGTSYYLTISSMEAEDAASYFCHQWSSYPPTFGGGTKLELK
B2: ch8-B3-F6-H8 (antibody, V domains shown)
VH: EVKVIESGGGLVQPGGSLKLSCAASGFDFSRYWMSWVRQAPGKGLEWIGEINPDSSAINYTPSLKDKFIISRDNAKNTLYLQMSKVRSEDTALYYCATSMTMDYWGQGTSVTVSS
VL: DIVMTQSPSSMYASLGERVTITCKASQDIKSYLSWYQQKPWKSPKTLIYYATSLADGVPSRFSGSGSGQDYSLTISSLESDDTATYYCLQHGESPYTFGGGTKLEK
B3: ch48-E11-H7-B5 (antibody, V domains shown)
VH: EVQLVESGGGLVKPGGSLKLSCAASGFTFSSYAMSWVRQTPEKRLEWVASITIGDDTYYPDSVKGRFTISRDHAKNILYLQVSSLRSEDTAMYSCARGVNSYGSSYRYFDVWGAGTTVTVSS
VL: DIVMTQSHKFMSTSVGDRVSITCKASQDVSTAVAWYQQKPGQSPKLLIYWASTRHTGVPDRFTGSGSGTDYTLTISSVQAEDLALYYCQQHYSIPFTFGAGTKLEK
B4: 25-E7-A10-H6 (antibody, V domains shown)
VH: EVQLVESGGGLVQPGGSRKLSCAASGFTFSTFGMHWVRQAPEKGLEWVAYISSGSSTIYYADTVKGRFTISRDNPKNTLFLQMTSLRSEDTAMYYCARSTGTGAMDYWGQGTSVTVSS
VL: DIQMTQTTSSLSASLGDRVTISCRASQDISKYLNWYQQKPDGTVKLLIYYTSRLHSGVPSRFSGSGSGTDYSLTISNLEQEDIATYFCQQGNTLPWTFGGGTKLEIK
notes: mouse monoclonal hybridoma antibody
B5: 27-G5-E9-B8 (antibody, V domains shown)
VH: B4 VH with T31S
VL: B4 VL with R18S, I21F, K31N, Y49S, T93A
notes: as for B4
B6: 10-H9-E3-G3 (antibody, V domains shown)
VH: B4 VH with L4R, T31S, T57A, I58M, T100D, T102K
VL: B4 VL with K31N, I48V
notes: as for B4
B7: 27-F11-E10-G10 (antibody, V domains shown)
VH: B4 VH with T31S, T69S, Y94F
VL: B4 VL with K31N, I106L
notes: as for B4
B8: 26-H9-B9-B7 (antibody, V domains shown)
VH: B4 VH with L4R, T31S, T100D, T102K
VL: B4 VL with Q3V, T7S, K31N
notes: as for B4
B9: 2-H1-D7-E5-D5 (antibody, V domains shown)
VH: B4 VH with Q3H, T31S, A40P, T57S, S99G
VL: B4 VL with A25T, K31N, R53K, E79D
notes: as for B4
B10: 27-D11-C2-A10 (antibody, V domains shown)
VH: B4 VH with T31V, M34V, S56N, Y59H, N74I, T100S
VL: B4 VL with T7S, T20S, K31N, T43A, E79D, I106L
notes: as for B4
B11: 43-D12-F3-G11 (antibody, V domains shown)
VH: B1 VH
VL: B1 VL
notes: as for B4
B12: 8-B3-F6-H8 (antibody, V domains shown)
VH: B2 VH
VL: B2 VL
notes: as for B4

T4 sequence (Q8N6C8 24-439): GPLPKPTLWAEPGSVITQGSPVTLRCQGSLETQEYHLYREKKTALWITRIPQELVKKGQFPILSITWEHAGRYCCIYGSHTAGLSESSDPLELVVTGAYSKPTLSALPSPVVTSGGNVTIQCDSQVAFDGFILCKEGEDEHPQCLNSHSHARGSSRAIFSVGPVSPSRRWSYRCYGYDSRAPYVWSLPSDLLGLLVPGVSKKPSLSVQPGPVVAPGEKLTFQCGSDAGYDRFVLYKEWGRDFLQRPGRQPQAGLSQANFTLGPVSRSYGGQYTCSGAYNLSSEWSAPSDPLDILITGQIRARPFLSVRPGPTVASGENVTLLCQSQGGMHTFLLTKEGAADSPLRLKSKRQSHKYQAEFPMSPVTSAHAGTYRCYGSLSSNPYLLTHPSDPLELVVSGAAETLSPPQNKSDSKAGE
T8 sequence (Q8N423 22-597): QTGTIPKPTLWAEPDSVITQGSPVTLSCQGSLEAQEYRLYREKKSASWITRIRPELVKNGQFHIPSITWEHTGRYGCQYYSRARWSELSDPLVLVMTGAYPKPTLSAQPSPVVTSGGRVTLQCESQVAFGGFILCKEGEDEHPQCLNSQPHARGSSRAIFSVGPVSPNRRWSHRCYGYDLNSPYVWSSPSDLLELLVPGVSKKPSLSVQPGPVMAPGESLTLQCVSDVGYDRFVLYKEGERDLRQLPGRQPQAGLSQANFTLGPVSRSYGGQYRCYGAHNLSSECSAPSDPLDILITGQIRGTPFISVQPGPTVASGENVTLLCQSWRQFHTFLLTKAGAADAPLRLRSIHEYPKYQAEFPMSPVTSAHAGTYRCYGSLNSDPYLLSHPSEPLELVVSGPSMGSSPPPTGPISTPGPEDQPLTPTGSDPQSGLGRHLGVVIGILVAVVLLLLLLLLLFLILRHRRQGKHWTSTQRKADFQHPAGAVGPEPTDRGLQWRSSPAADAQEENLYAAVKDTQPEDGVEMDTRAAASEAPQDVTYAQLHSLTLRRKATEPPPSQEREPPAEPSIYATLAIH
T3 sequence (Q8N149 24-483): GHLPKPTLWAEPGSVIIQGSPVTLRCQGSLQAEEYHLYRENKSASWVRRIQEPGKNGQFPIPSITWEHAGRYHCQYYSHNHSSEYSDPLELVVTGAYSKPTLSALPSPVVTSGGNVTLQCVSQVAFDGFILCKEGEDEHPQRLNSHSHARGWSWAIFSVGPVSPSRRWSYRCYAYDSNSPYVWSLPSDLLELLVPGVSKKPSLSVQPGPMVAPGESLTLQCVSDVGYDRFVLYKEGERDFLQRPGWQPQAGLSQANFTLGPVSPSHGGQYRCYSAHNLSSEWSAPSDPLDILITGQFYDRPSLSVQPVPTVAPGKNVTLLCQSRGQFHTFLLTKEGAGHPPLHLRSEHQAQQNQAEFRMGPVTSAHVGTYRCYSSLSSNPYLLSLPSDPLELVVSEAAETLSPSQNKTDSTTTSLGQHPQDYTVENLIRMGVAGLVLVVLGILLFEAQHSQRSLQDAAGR

The target in the first assay is T1, human LILRB4 (human, UniProt Q8NHJ6 22-448). As to the kind of experiment: cell-based or functional assay.
For B1, the “EC50 (nM), ADCC on THP-1 cells” value was 4.14 nM and the “Max cell cytotoxicity (%), ADCC on THP-1 cells” value was determined as 2.39%.

As to B2, the “Max cell cytotoxicity (%), ADCC on THP-1 cells” value worked out at 7.1%.

Another assay addresses T1, human LILRB4. Put plainly: cell-based or functional assay. This is another data set of the same source.
Consider B3, for which the “ADCP (%) at 133.3 nM, macrophages and MV-4-11 cells” value (“ADCP (%) at 133.3 nM” below) worked out at 18%.

For B1, the “ADCP (%) at 133.3 nM” value turned out to be 18.2%.

B2: the “ADCP (%) at 133.3 nM” value is 4.59%.

The next assay has as its target T1, human LILRB4. As to the kind of experiment: cell-based or functional assay. The source holds these as a separate data set.
Consider B3, for which the “FcγR stimulation (TNF-α, pg/mL)” value came out at 1310 pg/mL and the “Fold change (Compared to isotype)” value was found to be 41.4 fold.

Take B1: the “FcγR stimulation (TNF-α, pg/mL)” value was found to be 215 pg/mL and the “Fold change (Compared to isotype)” value is 6.81 fold.

In the case of B2, the “FcγR stimulation (TNF-α, pg/mL)” value was 391 pg/mL and the “Fold change (Compared to isotype)” value was determined as 12.4 fold.

For the next assay, the target named is T2, human LILRA1 (human, UniProt O75019 17-489).
T2 construct: whole, on cells; also called hLILRA1
T2 sequence (O75019 17-489): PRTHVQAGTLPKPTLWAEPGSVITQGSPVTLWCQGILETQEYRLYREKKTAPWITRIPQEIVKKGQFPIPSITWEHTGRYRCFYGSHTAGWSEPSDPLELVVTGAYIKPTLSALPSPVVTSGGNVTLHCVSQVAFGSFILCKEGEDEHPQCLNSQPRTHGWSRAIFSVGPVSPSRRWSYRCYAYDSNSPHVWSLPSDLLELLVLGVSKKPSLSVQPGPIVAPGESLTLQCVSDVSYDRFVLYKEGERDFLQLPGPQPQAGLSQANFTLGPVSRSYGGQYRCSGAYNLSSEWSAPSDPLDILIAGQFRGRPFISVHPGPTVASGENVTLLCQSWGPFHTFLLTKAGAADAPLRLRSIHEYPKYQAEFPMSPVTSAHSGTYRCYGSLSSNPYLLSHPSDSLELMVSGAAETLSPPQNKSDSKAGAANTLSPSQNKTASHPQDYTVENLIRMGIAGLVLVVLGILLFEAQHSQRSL
As to the kind of experiment: FACS, 293F-hLILRA1 cells. Background: A flow cytometer gives signals particle by particle.
As for B4, the MFI came to 23.1 MFI.

Turning to B5, the MFI is 24 MFI.

As to B6, the MFI worked out at 21.6 MFI.

B7 gave an MFI of 22.1 MFI.

Take B8: the MFI came to 21.3 MFI.

B9 displayed an MFI of 21.9 MFI.

For B10, the MFI is 21.6 MFI.

With B11, the MFI was determined as 22.2 MFI.

In turn, B12 yielded an MFI of 22.2 MFI.

The next assay concerns the target T3, human LILRA2 (human, UniProt Q8N149 24-483).
T3 construct: whole, on cells; also called hLILRA2
As to the kind of experiment: FACS, 293F-hLILRA2 cells.
For the molecule B4, the MFI amounted to 21 MFI.

The molecule B5 came in with an MFI of 17.7 MFI.

B6 showed an MFI of 19.9 MFI.

The molecule B7 yielded an MFI of 17.3 MFI.

Regarding B8, the MFI came out at 17.9 MFI.

Turning to B9, the MFI was found to be 20 MFI.

Consider B10, for which the MFI turned out to be 17.8 MFI.

B11 yielded an MFI of 20 MFI.

Turning to B12, the MFI worked out at 19.6 MFI.

A further assay has as its target T4, human LILRA3 (human, UniProt Q8N6C8 24-439).
T4 construct: whole, on cells; also called hLILRA3
As to the kind of experiment: FACS, 293F-hLILRA3 cells.
Take B4: the MFI was found to be 20.1 MFI.

In turn, B5 returned an MFI of 19.5 MFI.

As for B6, the MFI turned out to be 18.3 MFI.

Take B7: the MFI came out at 19.1 MFI.

B8 returned an MFI of 19.1 MFI.

In turn, B9 registered an MFI of 20 MFI.

Turning to B10, the MFI turned out to be 17.2 MFI.

In turn, B11 displayed an MFI of 20.2 MFI.

In turn, B12 came in with an MFI of 20 MFI.

The target in the next assay is T5, human LILRA4 (human, UniProt P59901 24-499).
T5 construct: whole, on cells; also called hLILRA4
T5 sequence (P59901 24-499): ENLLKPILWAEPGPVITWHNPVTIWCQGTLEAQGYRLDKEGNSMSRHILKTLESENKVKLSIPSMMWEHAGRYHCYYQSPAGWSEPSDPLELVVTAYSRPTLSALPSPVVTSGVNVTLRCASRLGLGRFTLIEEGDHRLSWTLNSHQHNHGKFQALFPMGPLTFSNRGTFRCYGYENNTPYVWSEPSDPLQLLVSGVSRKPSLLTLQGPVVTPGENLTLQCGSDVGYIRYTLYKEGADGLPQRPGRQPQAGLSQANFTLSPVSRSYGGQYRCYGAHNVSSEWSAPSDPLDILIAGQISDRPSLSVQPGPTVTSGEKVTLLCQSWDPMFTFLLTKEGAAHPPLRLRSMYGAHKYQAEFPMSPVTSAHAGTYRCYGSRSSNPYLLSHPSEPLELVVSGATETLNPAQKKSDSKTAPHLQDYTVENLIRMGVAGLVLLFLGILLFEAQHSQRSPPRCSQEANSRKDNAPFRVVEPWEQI
Put plainly: FACS, 293F-hLILRA4 cells.
B4: the MFI was determined as 19.9 MFI.

The molecule B6 showed an MFI of 20.7 MFI.

The molecule B7 had an MFI of 19.7 MFI.

Molecule B8 gave an MFI of 19.4 MFI.

In the case of B9, the MFI turned out to be 23.7 MFI.

Molecule B10 gave an MFI of 19.6 MFI.

B11 yielded an MFI of 21.2 MFI.

Consider B12, for which the MFI was determined as 19.5 MFI.

The target of another assay is T6, human LILRA5 (human, UniProt A6NI73 42-299).
T6 construct: whole, on cells; also called hLILRA5
T6 sequence (A6NI73 42-299): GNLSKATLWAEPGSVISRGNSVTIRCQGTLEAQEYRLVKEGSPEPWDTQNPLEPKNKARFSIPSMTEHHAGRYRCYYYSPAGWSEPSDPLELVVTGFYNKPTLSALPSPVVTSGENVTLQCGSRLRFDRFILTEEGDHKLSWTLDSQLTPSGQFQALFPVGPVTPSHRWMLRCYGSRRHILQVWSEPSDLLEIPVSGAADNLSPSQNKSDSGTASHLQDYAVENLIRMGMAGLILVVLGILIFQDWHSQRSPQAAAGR
Put plainly: FACS, 293F-hLILRA5 cells.
Regarding B4, the MFI came to 19.9 MFI.

Take B5: the MFI was 19.1 MFI.

Consider B6, for which the MFI came out at 25 MFI.

B8: the MFI was determined as 19.6 MFI.

The molecule B9 showed an MFI of 24.7 MFI.

Turning to B10, the MFI turned out to be 17.2 MFI.

For the molecule B11, the MFI was 172 MFI.

In the case of B12, the MFI was 24.5 MFI.

A further assay deals with T7, human LILRB1 (human, UniProt Q8NHL6 24-650).
T7 construct: whole, on cells; also called hLILRB1
T7 sequence (Q8NHL6 24-650): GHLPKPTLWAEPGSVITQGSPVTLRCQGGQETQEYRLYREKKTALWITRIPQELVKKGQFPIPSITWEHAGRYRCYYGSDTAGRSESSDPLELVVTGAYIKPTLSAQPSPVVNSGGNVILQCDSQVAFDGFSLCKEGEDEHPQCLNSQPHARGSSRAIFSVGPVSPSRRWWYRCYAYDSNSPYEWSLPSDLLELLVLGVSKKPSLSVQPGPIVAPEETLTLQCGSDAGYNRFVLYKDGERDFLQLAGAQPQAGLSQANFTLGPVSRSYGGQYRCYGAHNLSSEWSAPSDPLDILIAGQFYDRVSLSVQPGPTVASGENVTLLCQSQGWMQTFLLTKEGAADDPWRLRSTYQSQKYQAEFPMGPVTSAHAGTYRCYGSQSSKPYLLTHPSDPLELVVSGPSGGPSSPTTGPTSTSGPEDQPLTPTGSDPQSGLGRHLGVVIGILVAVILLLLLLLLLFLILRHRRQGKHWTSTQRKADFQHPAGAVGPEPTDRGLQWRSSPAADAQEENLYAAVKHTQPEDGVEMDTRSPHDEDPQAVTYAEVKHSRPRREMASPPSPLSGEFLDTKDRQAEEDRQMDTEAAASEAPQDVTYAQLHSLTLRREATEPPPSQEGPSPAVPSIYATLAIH
Put plainly: FACS, 293F-hLILRB1 cells.
Regarding B4, the MFI was 22.5 MFI.

Consider B5, for which the MFI worked out at 20.2 MFI.

The molecule B6 gave an MFI of 21 MFI.

In the case of B7, the MFI came out at 21.1 MFI.

Molecule B8 returned an MFI of 20.8 MFI.

Molecule B9 displayed an MFI of 25.2 MFI.

For the molecule B10, the MFI is 20.8 MFI.

The molecule B11 displayed an MFI of 22.6 MFI.

In the case of B12, the MFI came out at 19.4 MFI.

A further assay addresses T8, human LILRB2 (human, UniProt Q8N423 22-597).
T8 construct: whole, on cells; also called hLILRB2
As to the kind of experiment: FACS, 293F-hLILRB2 cells.
For the molecule B4, the MFI stood at 33.2 MFI.

B5 displayed an MFI of 25.4 MFI.

Take B6: the MFI worked out at 29.5 MFI.

Molecule B7 returned an MFI of 27.7 MFI.

As to B8, the MFI was 28.8 MFI.

In turn, B9 registered an MFI of 31.5 MFI.

B10 registered an MFI of 28.3 MFI.

In turn, B11 showed an MFI of 30.4 MFI.

B12: the MFI came to 29.5 MFI.

The target in a further assay is T9, human LILRB3 (human, UniProt O75022 24-631).
T9 construct: whole, on cells; also called hLILRB3
T9 sequence (O75022 24-631): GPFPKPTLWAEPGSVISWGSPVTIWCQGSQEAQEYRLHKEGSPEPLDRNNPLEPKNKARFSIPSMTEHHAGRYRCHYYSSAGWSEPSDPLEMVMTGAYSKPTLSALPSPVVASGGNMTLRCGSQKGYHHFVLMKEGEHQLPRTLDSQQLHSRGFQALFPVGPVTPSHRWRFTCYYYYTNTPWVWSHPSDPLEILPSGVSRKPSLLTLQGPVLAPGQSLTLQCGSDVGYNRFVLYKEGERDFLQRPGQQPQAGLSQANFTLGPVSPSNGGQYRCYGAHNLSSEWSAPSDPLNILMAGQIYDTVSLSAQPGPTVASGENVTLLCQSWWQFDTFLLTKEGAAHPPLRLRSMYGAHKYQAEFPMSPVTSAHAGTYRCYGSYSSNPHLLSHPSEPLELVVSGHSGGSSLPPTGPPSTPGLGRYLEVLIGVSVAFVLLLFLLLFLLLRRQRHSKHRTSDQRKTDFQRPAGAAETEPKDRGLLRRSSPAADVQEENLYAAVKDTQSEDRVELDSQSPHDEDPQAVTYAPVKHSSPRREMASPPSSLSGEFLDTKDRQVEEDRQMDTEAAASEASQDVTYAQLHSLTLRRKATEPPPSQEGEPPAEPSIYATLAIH
Put plainly: FACS, 293F-hLILRB3 cells.
Consider B4, for which the MFI came out at 23.1 MFI.

Regarding B5, the MFI worked out at 23.7 MFI.

Molecule B6 yielded an MFI of 22.7 MFI.

In the case of B7, the MFI stood at 24.9 MFI.

B8 registered an MFI of 23.6 MFI.

On to B9, for which the MFI came out at 23 MFI.

With B10, the MFI is 19.7 MFI.

The target of a further assay is T1, human LILRB4. As to the kind of experiment: FACS, 293F-hLILRB4 cells. How it is done:
The subcloning plates were screened by protein or cell-based ELISA, and the subclones with good binding ability were expanded to 24-wells for confirmation tests. The specificity and cross-reactivity of these subclones were confirmed with FACS analysis. […] Fluorescent dye-conjugated secondary antibody was used to detect the binding of the primary antibody with the cells. Median fluorescence intensity (MFI) was measured by FACS analysis. […]
For the molecule B4, the MFI was found to be 759 MFI.

B5 registered an MFI of 213 MFI.

Regarding B6, the MFI came out at 210 MFI.

In turn, B7 returned an MFI of 512 MFI.

B8: the MFI came out at 441 MFI.

As to B9, the MFI is 915 MFI.

Regarding B10, the MFI turned out to be 588 MFI.

B11 had an MFI of 727 MFI.

B12 registered an MFI of 1060 MFI.

For a further assay, the target named is T10, human LILRB5 (human, UniProt O75023 24-590).
T10 construct: whole, on cells; also called hLILRB5
T10 sequence (O75023 24-590): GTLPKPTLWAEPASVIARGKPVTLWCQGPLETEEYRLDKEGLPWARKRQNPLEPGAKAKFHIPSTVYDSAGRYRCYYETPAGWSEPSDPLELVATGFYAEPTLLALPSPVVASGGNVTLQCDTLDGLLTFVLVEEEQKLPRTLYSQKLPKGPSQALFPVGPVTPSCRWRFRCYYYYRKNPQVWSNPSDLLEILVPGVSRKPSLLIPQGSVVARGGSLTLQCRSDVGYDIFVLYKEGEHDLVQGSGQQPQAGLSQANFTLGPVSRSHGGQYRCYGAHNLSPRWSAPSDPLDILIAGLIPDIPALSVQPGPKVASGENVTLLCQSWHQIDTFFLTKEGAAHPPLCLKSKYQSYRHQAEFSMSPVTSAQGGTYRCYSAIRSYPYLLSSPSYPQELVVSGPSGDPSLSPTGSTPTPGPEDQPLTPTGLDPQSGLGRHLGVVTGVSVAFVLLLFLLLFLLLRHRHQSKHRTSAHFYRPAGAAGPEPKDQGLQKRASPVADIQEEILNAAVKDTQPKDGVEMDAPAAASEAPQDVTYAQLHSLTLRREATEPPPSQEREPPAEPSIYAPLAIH
Put plainly: FACS, 293F-hLILRB5 cells.
B4 showed an MFI of 16.3 MFI.

B5 came in with an MFI of 18.7 MFI.

Molecule B6 showed an MFI of 21.8 MFI.

Regarding B7, the MFI was determined as 19.5 MFI.

Take B8: the MFI stood at 19.6 MFI.

For the molecule B9, the MFI was found to be 22.6 MFI.

Regarding B10, the MFI amounted to 18.8 MFI.

Take B11: the MFI is 17.9 MFI.

Molecule B12 yielded an MFI of 16.8 MFI.

Another assay addresses T9, human LILRB3. As to the kind of experiment: FACS, 293F-hLILRB3 cells. The source holds these as a separate data set. The procedure:
(§1) The protocol for FACS analysis is described as follows: [0438] (a) Cells were harvested by centrifugation at 300 g for 3 mins. […] (b) The cells were washed for 2 times with FACS buffer by centrifuging at 300 g for 3 mins and the supernatant was discarded. [0440] (c) Cell were resuspended and seeded into assay plate (2×10⁵ cells/well) in 50 μl FACS buffer. […] Cells were incubated with antibodies at 4° C. for 1 hour. […] (d) Step (b) was repeated and the cells were resuspended with 100 μl diluted 2nd antibody, incubated at 4° C. for 1 hour in the dark. [0442] (e) Step (b) was repeated and the cells were resuspended with 100 μl FACS buffer. The cells were kept in dark for FACS analysis.
As to B3, the binding result is on record as “no binding (tested: up to 66.67 nM)”.

The next assay concerns the target T1, human LILRB4. Put plainly: FACS, 293F-hLILRB4 cells. This is another data set of the same source. How it is done:
as §1
One may read the EC50 as the midpoint of the concentration-response curve. The low end stands for higher potency in that assay, the high end for lower potency in that assay. For the molecule B3, the EC50 turned out to be 4.05 nM and the “Max MFI” value was 53700 MFI.

Turning to B1, the response was half-maximal at 2.91 nM (EC50) and the “Max MFI” value is 48000 MFI.

Turning to B2, a half-maximal response (EC50) required 2.05 nM and the “Max MFI” value amounted to 48500 MFI.
